Two variants from FireProtDB (doi:10.1002/pro.343) can be followed below.

For orientation: Tm means the temperature at which the thermal transition is half complete.

Sequences and labels used below:
B1: Multidrug resistance operon repressor, P52003 (parent)
chain: MNYPVNPDLMPALMAVFQHVRTRIQSELDCQRLDLTPPDVHVLKLIDEQRGLNLQDLGRQMCRDKALITRKIRELEGRNLVRRERNPSDQRSFQLFLTDEGLAIHQHAEAIMSRVHDELFAPLTPVEQATLVHLLDQCLAAQPLEDI

The variants in one data set derive from B1. The following applies: Pseudomonas aeruginosa (strain ATCC 15692 / DSM 22644 / CIP 104116 / JCM 14847 / LMG 12228 / 1C / PRS 101 / PAO1); pH 7.2; 22 °C; GdnHCl; CD; Sodium phosphate 10 mM; transition: 3; structure 1LNW; whole UniProt chain shown.
For the variant R21W, the “denaturant midpoint (higher = more stable)” value amounted to 2.6 M.

Staying with this data set, now noted: Pseudomonas aeruginosa (strain ATCC 15692 / DSM 22644 / CIP 104116 / JCM 14847 / LMG 12228 / 1C / PRS 101 / PAO1); pH 7.2; Thermal; CD; Sodium phosphate 10 mM; structure 1LNW; whole UniProt chain shown.
Regarding L13M, the Tm is 47.8 °C.
